{
  "source": "patent CN111793131A",
  "binders": {"B1": {"name": "单克隆抗体AntiPF4_N (杂交瘤来源, 实施例1) (antibody, V domains shown)", "VH": "EVKLEESGGGLVQPGGSMKLSCVASGFTFSNYWMNWVRQSPEKGLEWVAEIRLKSNNYATHYAESVKGRFTISRDDSKSSVYLQMNNLRAEDTGIYYCTGYDFDYWGQGTTLTVSS", "VL": "DVVMTQTPLSLPVSLGDQASISCRSSQSLVHNYGNTFLHWYLQKPGQSPKLLIYSTSNLFSGVPDRFSGSGSGTDFTLKISRVEAEDLGVYFCSQSTHVPPTFGGGTKLEI"}},
  "key": {"[1]": {"target": "PF4全抗原 (血小板因子4, platelet factor 4) (Homo sapiens (Human)) (UniProt P02776)", "sequence (P02776 32-101 limits assumed)": "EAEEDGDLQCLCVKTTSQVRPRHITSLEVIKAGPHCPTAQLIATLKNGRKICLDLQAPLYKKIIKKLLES", "assay": "chemiluminescent ELISA, antigen coated at 2ug/ml, 2ul antibody, HRP goat anti-mouse IgG, luminol (blank 3280)"}, "[2]": {"target": "PF4全抗原 (血小板因子4, platelet factor 4) (Homo sapiens (Human)) (UniProt P02776)", "assay": "chemiluminescent ELISA, antigen coated at 2ug/ml, 10ul antibody, HRP goat anti-mouse IgG, luminol (blank 3280)"}, "[3]": {"target": "PF4全抗原 (血小板因子4, platelet factor 4) (Homo sapiens (Human)) (UniProt P02776)", "assay": "chemiluminescent ELISA, antigen coated at 2ug/ml, 50ul antibody, HRP goat anti-mouse IgG, luminol (blank 3280)"}},
  "data": [
    {"binder": "B1", "values": [
      {"measurement": "发光值", "setting": "[1]", "result": 63000},
      {"measurement": "发光值", "setting": "[2]", "result": 256000},
      {"measurement": "发光值", "setting": "[3]", "result": 994000}
    ]}
  ]
}
